Assay results taken from patent publication US20140348834A1 (published 2014).

Key:
human IL-17A [1] = biological target: T1, human IL-17A (human, UniProt Q16552 24-155); assay: cell-based or functional assay
human IL-17A/F = human IL-17A/F (human, UniProt Q16552 24-155; Q96PD4 31-163); assay: cell-based or functional assay
[2] = biological target: cynomolgous monkey (cyno) IL-17A (cynomolgus monkey, UniProt A0A2K5TTB0 24-155); assay: cell-based or functional assay
rat IL-17A = biological target: T2, rat IL-17A (rat, UniProt Q61453 18-150, limits assumed); assay: cell-based or functional assay
T2 sequence (looked up): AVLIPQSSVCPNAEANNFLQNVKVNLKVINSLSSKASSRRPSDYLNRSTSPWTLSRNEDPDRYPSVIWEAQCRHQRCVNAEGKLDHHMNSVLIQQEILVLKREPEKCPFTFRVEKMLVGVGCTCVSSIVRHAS

mouse IL-17A = biological target: T3, mouse IL-17A (mouse, UniProt Q62386 26-158, limits assumed); assay: cell-based or functional assay
T3 sequence (looked up): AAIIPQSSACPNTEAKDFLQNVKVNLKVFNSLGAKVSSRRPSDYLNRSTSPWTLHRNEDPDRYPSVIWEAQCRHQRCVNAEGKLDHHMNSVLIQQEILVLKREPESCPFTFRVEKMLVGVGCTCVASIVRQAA

rabbit IL-17A = rabbit IL-17A (rabbit); assay: cell-based or functional assay
human IL-17A [3] = biological target: T1, human IL-17A; assay: ELISA, captured antibody, serially diluted biotin-IL-17 (Example 1.5.1)
Description: The following protocol is used to characterize the binding of IL-17 antibodies to human IL-17 by enzyme-linked immunosorbent assay (ELISA). […] 1. Coat ELISA plate with 50 μl per well of Goat anti Mouse IgG-Fc at 2 ug/ml, overnight at 4° C. […] 2. Wash plate 3×PBS/Tween. […] 3. Add 50 μl Mab diluted to 1 μg/ml in PBS/0.1% BSA to appropriate wells. Incubate 1 hr at room temperature (RT). […] 4. Wash plate 3× with PBS/Tween. […] 5. Add 50 μl of serial diluted biotin-IL17 (human IL-17, IL-17A/F, cyno IL-17) to appropriate wells. Incubate 1 hr at room temperature (RT). […] 6. Wash plate 3× with PBS/Tween. […] 7. […] Incubate 1 hr at RT. […] 8. Wash plate 3× with PBS/Tween. […] 9. […] 10. Stop reaction with 50 μl 2N H₂SO₄. […] Read absorbance at 450 nm.

T1 sequence (Q16552 24-155 limits assumed): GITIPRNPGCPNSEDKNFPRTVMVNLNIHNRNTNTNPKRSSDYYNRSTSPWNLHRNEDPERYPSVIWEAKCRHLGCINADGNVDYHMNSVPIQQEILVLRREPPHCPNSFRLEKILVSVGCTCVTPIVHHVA
Sequence of human IL-17A/F (Q16552 24-155 limits assumed, chain 1 of 2): as the sequence (Q16552 24-155 limits assumed) above
Sequence of human IL-17A/F (Q96PD4 31-163 limits assumed, chain 2 of 2): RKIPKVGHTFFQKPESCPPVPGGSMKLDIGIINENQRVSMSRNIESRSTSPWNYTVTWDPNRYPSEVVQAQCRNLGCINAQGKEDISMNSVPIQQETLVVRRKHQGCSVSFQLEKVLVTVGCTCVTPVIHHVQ
Sequence of cynomolgous monkey (cyno) IL-17A (A0A2K5TTB0 entry or part of it): as the sequence (Q16552 24-155 limits assumed) above, with T3A, P8S, N34S, I77V, N78K, P104R counted along it

B1: IL17-B6-17 (antibody, V domains shown)
VH: EVQLVQSGAEVKKPGSSVKVSCKASGGSFGGYGIGWVRQAPGQGLEWMGGITPFFGFADYAQKFQGRVTITADESTTTAYMELSGLTSDDTAVYYCARDPNEFWNGYYSTHDFDSWGQGTTVTVSS
VL: EIVLTQSPDFQSVTPKEKVTITCRASQDIGSELHWYQQKPDQPPKLLIKYASHSTSGVPSRFSGSGSGTDFTLTINGLEAEDAGTYYCHQTDSLPYTFGPGTKVDIK
notes: also called pJP249 B6.1 #17VH / pJP252 B6.1 #17Vk
Human IL-17A [1]
  Potency (pM), IL-17-driven IL-6 production in HS27 cells: 15 pM
Human IL-17A/F
  Potency (pM), IL-17-driven IL-6 production in HS27 cells: 137 pM
[2]
  Potency (pM), IL-17-driven IL-6 production in HS27 cells: 11 pM
Rat IL-17A
  Potency (pM), IL-17 and TNF-induced IL-6 secretion from NIH3T3 cells: 111 pM
Mouse IL-17A
  Potency (pM), IL-17 and TNF-induced IL-6 secretion from NIH3T3 cells: 69 pM
Rabbit IL-17A
  Potency (pM), IL-17 and TNF-induced IL-6 secretion from NIH3T3 cells: 232 pM
Human IL-17A [3]
  EC50: 0.13 nM
